For experiment [1], the target named is Myeloma human IgA2 (Abcam) (human, UniProt P01877-1 1-340). The experiment in a line: indirect ELISA, antigen coated 1 µg/mL, antibody 1 µg/mL; no-antigen well 0.048. On the procedure:
(§1) Myeloma human IgA1 (Abcam), Myeloma human IgA2 (Abcam), Myeloma human IgD (Abcam), Myeloma human IgE (Abcam), Myeloma human IgM (Abcam), Myeloma human IgG1 (EMD Millipore), Myeloma human IgG2 (EMD Millipore), Myeloma human IgG3 (Sigma-Aldrich Co. LLC), and Myeloma human IgG4 (EMD Millipore) were adjusted to 1 μg/mL with PBS(−). The adjusted samples were added to a 96-well plate (Thermo Fisher Scientific) by 100 μL, respectively. The plate was shaken by a shaker under the condition of 700 rpm and 25.0° C. for 1 hour. The solutions were discarded, the plate was cleaned with 300 μL of PBST 3 times, 100 μL of a blocking buffer solution was added to each well, and then the plate was stored at 4° C. one night or more. Similarly, after cleaning with PBST, the MaI4-08 and MaI4-09-produced antibodies were adjusted to 1 μg/mL with an antibody dilute buffer solution and then added to each well by 100 μL, and the plate was shaken under the same condition as mentioned above. Similarly, after cleaning with PBST, a HRP labeled anti-mouse IgG antibody (Abcam) diluted 4000-fold with an antibody dilute buffer solution was added to each well by 100 μL, and the plate was shaken under the same condition as mentioned above. Similarly, after cleaning with PBST, 100 μL of SureBlue (KPL) was added. 5 or 3 minutes later, 100 μL of 0.5 mol/L sulfuric acid (Wako Pure Chemical Corporation) was added to each of MaI4-08 and MaI4-09. Absorbance at a wavelength of 450 nm was measured with a microplate reader (BIO-RAD Laboratories, Inc.). As a result, a strong signal was given to Myeloma human IgG4 as compared to the other samples (Tables 2 and 3, and FIGS. 2 and 3).

Experiment [2] addresses Myeloma human IgE (Abcam) (human, UniProt P01854-1 1-428). The experiment is described as above. On the procedure: as §1
The target of experiment [3] is Myeloma human IgD (Abcam) (human, UniProt P01880-1 1-384). Described as above. On the procedure:
as §1

The target of experiment [4] is Myeloma human IgM (Abcam) (human, UniProt P01871-1 1-453). The experiment is described as above. On the procedure: as §1
Sequence of Myeloma human IgM (Abcam) (P01871 other isoform, or with tags, fused parts or gaps): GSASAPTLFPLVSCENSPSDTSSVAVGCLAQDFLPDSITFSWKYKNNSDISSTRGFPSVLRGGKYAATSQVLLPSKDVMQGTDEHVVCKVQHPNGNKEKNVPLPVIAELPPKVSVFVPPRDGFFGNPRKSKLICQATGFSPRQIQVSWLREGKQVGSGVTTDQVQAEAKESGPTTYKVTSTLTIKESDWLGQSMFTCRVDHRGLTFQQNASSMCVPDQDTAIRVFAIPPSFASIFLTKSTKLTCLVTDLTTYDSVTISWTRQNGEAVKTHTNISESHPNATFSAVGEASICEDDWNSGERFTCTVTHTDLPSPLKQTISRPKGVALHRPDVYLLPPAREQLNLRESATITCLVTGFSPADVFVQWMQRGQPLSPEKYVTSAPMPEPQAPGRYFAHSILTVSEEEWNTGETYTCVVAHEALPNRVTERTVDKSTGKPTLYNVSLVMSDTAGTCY
The target of experiment [5] is T1, Myeloma human IgG2 (EMD Millipore) (human).
T1 construct: Bought myeloma protein
T1 sequence (constant, as listed by the source limits assumed): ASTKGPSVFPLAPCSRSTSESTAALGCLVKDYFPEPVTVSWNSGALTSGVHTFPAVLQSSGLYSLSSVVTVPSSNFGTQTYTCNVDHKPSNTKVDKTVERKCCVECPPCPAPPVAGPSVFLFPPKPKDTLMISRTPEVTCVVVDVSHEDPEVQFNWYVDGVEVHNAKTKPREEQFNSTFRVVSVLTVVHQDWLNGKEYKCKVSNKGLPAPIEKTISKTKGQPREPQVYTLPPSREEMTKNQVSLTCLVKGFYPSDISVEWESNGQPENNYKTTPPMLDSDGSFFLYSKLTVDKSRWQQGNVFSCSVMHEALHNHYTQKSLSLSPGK
The experiment is described as above. On the procedure:
as §1

Experiment [6] has as its target T2, Myeloma human IgG3 (Sigma-Aldrich Co. LLC) (human).
T2 construct: Bought myeloma protein
Described as above. On the procedure:
as §1

The target in experiment [7] is Myeloma human IgA1 (Abcam) (human, UniProt P01876-1 1-353). Described as above. On the procedure:
as §1

Experiment [8] addresses T3, GST-tagged peptide H6 (positions 1 to 55 of the human IgG4 heavy chain constant region) (human, UniProt P01859 1-55 = IgG part).
T3 construct: E. coli lysate on Western blot; not shown: GST tag (glutathione S-transferase) linked to the N terminal, expressed from vector pGEX-6P-1
Briefly: Western blot: E. coli lysate with the GST-tagged peptide, SDS-PAGE, PVDF membrane, POD-labelled antibody diluted 1000-fold, ECL. The procedure:
(§2) Based on the designed amino acid sequences, base sequences suitable for expressing protein in E. coli were designed according to the protocol of GenScript Corporation, thereby preparing vector pGEX-6P-1 (GE Healthcare Bio-Sciences Corp.) to which the respective base sequences are inserted. The prepared expression plasmid was introduced to E. coli BL 21 strain, thereby obtaining a transformant. The transformant was cultured by an ordinary method and a protein expression was induced by IPTG. After the cells were collected by centrifugation, the cells were dissolved with an ordinary lysis solution, and subjected to ultrasonication. 6 μL of an SDS sample buffer solution was added to 6 μL of the obtained lysate. The respective prepared samples were subjected to a heat treatment at 95° C. for 5 minutes. 10 μL of the E. coli disrupted sample was added to each well of 5 to 20% electrophoresis gel (Atto Corportation) to which an SDS electrophoresis buffer solution was added. Similarly, a molecular weight standard (Bio-Rad Laboratories, Inc.) was added to each well and electrophoresed. After completing the electrophoresis, the electrophoresis gel was transcribed to a PVDF membrane (Millipore Corporation) with a transfer buffer solution. The PVDF membrane was immersed in a membrane blocking buffer solution, and then shaking was carried out at room temperature for 30 minutes. Amino groups of MaI4-08, MaI4-09, and MaI4-05-produced antibodies were subjected to a POD labeling treatment with a POD labeling kit (Dojindo Molecular Technologies, Inc.). The obtained labeled antibodies each were diluted 1000-fold by PBST. After the PVDF membrane was cleaned with PBST, the antibody solutions prepared each were added to the PVDF membrane, and then the reaction was performed at room temperature for 1 hour. After the PVDF membrane was cleaned by PBST, a signal was detected with ECL Prime Western Blotting Detection Reagents (GE Healthcare) with Image Quant Las4000.

The target in experiment [9] is T4, GST-tagged peptide H12 (positions 99 to 220 of the human IgG4 heavy chain constant region) (human, UniProt P01861 99-220 = IgG part).
T4 construct: E. coli lysate on Western blot; not shown: GST tag (glutathione S-transferase) linked to the N terminal, expressed from vector pGEX-6P-1
T4 sequence (P01861 99-220): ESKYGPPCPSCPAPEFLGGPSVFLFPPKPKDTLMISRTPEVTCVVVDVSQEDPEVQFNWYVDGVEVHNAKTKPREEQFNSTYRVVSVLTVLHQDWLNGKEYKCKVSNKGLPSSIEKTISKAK
Described as above. On the procedure:
as §2

Experiment [10] has as its target T5, GST-tagged peptide H11 (positions 275 to 327 of the human IgG4 heavy chain constant region) (human, UniProt P01861 275-325 = IgG part).
T5 construct: E. coli lysate on Western blot; not shown: GST tag (glutathione S-transferase) linked to the N terminal, expressed from vector pGEX-6P-1
The description is as above. The procedure: as §2

The target in experiment [11] is T6, GST-tagged peptide H2 (positions 1 to 274 of the human IgG4 heavy chain constant region) (human, UniProt P01861 1-274 = IgG part).
T6 construct: E. coli lysate on Western blot; not shown: GST tag (glutathione S-transferase) linked to the N terminal, expressed from vector pGEX-6P-1
T6 sequence (P01861 1-274): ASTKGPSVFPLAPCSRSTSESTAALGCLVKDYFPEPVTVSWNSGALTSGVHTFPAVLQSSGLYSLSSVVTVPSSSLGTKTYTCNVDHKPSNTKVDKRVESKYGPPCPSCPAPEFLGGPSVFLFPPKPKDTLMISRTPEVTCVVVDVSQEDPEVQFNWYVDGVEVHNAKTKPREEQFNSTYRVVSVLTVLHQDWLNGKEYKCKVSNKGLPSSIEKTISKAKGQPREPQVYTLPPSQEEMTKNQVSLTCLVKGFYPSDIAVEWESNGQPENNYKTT
Described as above. The procedure: as §2

Experiment [12] deals with T7, GST-tagged peptide H5 (positions 1 to 110 of the human IgG4 heavy chain constant region) (human, UniProt P01861 1-110 = IgG part).
T7 construct: E. coli lysate on Western blot; not shown: GST tag (glutathione S-transferase) linked to the N terminal, expressed from vector pGEX-6P-1
T7 sequence (P01861 1-110): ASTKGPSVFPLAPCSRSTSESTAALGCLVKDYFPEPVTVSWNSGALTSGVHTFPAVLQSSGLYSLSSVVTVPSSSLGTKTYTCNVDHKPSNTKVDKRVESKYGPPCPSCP
The description is as above. The procedure: as §2

Experiment [13] addresses T8, GST-tagged peptide H3 (positions 1 to 220 of the human IgG4 heavy chain constant region) (human, UniProt P01861 1-220 = IgG part).
T8 construct: E. coli lysate on Western blot; not shown: GST tag (glutathione S-transferase) linked to the N terminal, expressed from vector pGEX-6P-1
The description is as above. The procedure: as §2

Experiment [14] deals with T9, GST-tagged peptide H4 (positions 1 to 165 of the human IgG4 heavy chain constant region) (human, UniProt P01861 1-165 = IgG part).
T9 construct: E. coli lysate on Western blot; not shown: GST tag (glutathione S-transferase) linked to the N terminal, expressed from vector pGEX-6P-1
T9 sequence (P01861 1-165): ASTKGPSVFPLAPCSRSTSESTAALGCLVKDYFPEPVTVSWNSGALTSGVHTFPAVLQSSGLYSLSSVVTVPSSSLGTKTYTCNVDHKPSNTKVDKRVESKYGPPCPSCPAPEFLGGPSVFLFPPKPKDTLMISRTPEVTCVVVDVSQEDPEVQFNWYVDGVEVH
The description is as above. The procedure:
as §2

This is an account of results in patent US20210140973A1 (NITTO BOSEKI, published 2021).

Sequence of Myeloma human IgA1 (Abcam) (P01876 other isoform, or with tags, fused parts or gaps): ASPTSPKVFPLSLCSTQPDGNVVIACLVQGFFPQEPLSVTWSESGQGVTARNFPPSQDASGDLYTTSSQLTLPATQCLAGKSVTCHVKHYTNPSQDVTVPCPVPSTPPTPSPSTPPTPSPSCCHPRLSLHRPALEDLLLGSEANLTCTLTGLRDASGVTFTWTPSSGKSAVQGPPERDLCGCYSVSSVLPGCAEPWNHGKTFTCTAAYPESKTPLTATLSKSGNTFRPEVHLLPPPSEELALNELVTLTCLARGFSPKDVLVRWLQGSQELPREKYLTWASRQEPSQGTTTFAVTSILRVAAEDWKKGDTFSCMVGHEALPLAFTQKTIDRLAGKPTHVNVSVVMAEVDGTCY
Sequence of Myeloma human IgE (Abcam) (P01854 other isoform, or with tags, fused parts or gaps): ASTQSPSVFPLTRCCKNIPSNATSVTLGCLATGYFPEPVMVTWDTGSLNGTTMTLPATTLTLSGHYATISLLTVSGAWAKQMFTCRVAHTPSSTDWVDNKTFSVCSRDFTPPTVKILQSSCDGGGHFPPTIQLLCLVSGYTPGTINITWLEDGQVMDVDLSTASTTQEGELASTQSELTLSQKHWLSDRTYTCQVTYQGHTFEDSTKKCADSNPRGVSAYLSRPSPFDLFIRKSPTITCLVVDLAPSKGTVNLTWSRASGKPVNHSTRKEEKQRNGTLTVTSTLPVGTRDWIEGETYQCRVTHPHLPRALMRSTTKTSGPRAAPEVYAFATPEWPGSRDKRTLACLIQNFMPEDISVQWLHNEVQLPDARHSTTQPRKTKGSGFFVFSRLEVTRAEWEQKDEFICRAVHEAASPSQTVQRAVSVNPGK
Sequence of Myeloma human IgA2 (Abcam) (P01877 other isoform, or with tags, fused parts or gaps): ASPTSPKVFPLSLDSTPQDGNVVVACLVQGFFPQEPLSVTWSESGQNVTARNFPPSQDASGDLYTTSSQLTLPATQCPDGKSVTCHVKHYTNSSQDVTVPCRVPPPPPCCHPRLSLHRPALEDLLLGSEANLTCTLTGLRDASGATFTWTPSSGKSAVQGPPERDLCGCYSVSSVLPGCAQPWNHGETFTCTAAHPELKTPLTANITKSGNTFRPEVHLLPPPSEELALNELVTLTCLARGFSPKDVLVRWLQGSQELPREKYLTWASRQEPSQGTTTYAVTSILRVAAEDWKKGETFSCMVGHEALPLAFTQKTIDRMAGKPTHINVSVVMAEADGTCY
T5 sequence (P01861 other isoform, or with tags, fused parts or gaps): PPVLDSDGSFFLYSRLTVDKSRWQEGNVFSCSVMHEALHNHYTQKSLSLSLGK
T3 sequence (P01859 1-55): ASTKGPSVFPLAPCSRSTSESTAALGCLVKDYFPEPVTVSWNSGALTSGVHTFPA
T8 sequence (P01861 1-220): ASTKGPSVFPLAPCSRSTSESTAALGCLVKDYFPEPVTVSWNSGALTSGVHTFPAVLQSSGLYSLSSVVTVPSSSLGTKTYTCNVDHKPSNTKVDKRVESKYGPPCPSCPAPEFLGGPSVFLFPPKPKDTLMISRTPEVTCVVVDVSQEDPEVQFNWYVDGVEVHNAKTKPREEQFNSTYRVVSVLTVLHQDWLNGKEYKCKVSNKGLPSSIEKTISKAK
Sequence of Myeloma human IgD (Abcam) (P01880 other isoform, or with tags, fused parts or gaps): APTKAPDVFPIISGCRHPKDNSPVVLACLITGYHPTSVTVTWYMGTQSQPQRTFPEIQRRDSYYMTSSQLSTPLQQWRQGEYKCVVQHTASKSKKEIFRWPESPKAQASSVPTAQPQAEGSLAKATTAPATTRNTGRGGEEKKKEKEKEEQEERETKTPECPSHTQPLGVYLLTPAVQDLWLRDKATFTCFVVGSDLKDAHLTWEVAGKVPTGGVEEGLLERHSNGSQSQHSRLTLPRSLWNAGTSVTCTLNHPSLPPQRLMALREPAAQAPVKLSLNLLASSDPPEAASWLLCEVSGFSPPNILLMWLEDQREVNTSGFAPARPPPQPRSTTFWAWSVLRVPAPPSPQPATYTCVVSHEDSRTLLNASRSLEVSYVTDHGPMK
T2 sequence (constant, as listed by the source limits assumed): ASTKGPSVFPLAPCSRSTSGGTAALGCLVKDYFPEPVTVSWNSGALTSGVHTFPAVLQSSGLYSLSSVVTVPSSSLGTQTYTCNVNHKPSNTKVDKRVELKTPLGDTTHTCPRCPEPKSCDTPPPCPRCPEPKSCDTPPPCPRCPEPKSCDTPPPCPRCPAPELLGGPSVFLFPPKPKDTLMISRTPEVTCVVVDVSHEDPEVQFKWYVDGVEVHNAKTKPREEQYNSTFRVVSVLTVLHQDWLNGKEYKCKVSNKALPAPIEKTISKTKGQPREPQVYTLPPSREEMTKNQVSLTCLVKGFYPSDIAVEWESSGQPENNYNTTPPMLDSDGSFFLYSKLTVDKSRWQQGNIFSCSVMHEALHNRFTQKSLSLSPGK

B1: MaI4-09-produced antibody (antibody, IgG1, V domains shown)
VH: EVQLQQSGPELVKPGASVKMSCKASGYTFTSSVMHWMKQKPGQGLEWIGYINPYNDGTRYNEKFQGKATLTSDKSSNTAYMELSSLTSEDSAVYYCTRSFYYGNSHVLFAYWGQGTLVTVSA
VL: DIKMTQSPSSIYPSLGERVTITCKASQDINSYLSWFQQKPGKSPKTLIYRANRLVDGVPSRFSGSGSGQDYSLTISSLEYEDMGIYHCLQYDELPYTFGGGTTLEIK
notes: Purified on protein G from hybridoma culture supernatant; POD-labelled for the Western blots
B1: the “absorbance at 450 nm” value in [1] was found to be 0.05; in experiment [2] it was 0.05; in experiment [3], 0.051; in [4] it was 0.055; in [5], 0.064; in [6], 0.052. The “absorbance at 450 nm” value in [7] was 0.058. Further, the binding result in experiment [8], in experiment [9], in [10], in [11], in [12] and in experiment [13] was “no binding” in each case. Moreover, the binding result in experiment [14] was “no binding”.
